Holding throughout (experiment): MST
The target in experiment [1] is Enhanced GFP with C-terminal (GGGGS)3GG linker and RQLL.
The target of experiment [2] is Sortilin extracellular domain (ECD) (M1-S756) C-terminally fused to 6His (UniProt Q99523).
For experiment [3], the target named is T1, Sortilin extracellular domain (ECD) (M1-S756) C-terminally fused to 6His (UniProt Q99523 78-756).
T1 sequence: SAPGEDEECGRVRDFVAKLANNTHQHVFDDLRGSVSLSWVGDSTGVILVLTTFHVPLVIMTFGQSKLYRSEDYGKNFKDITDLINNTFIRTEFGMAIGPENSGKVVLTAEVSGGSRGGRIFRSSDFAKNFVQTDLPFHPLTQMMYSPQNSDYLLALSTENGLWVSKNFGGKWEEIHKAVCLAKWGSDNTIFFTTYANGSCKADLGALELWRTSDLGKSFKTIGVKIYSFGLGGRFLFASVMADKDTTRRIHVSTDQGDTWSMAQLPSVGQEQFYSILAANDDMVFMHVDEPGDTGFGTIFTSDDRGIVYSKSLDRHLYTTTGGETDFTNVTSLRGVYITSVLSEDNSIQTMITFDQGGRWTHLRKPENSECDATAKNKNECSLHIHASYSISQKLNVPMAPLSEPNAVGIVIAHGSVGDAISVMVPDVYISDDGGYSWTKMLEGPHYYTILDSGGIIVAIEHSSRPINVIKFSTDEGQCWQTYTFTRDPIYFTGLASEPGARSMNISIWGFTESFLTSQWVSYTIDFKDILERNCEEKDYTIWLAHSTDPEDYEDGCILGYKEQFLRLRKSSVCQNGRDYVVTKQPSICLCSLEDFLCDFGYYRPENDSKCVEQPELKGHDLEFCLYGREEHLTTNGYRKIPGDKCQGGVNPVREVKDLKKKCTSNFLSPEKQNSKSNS

These results are taken from article doi:10.1101/2025.03.03.641244 (bioRxiv, 2025).

The Kd is the concentration at which binding is half-saturated.

Turning to “Sortilin extracellular domain (ECD) (M1-S756) C-terminally fused to 6His (from UniProt Q99523 78-756) (domain or fragment)”, the Kd in experiment [1] was 74 nM.
Take “TNFa (V76-L233) with C-terminal (GGGGS)3GG linker and RQLL”: the Kd in experiment [2] worked out at 86.5 nM.
The molecule “TNFa (V76-L233) without RQLL (natural protein)” had a Kd in experiment [2] of more than 200000 nM.

B1: progranulin N-terminally tagged with the HiBiT peptide (ligand)
chain: TRCPDGQFCPVACCLDPGGASYSCCRPLLDKWPTTLSRHLGGPCQVDAHCSAGHSCIFTVSGTSSCCPFPEAVACGDGHHCCPRGFHCSADGRSCFQRSGNNSVGAIQCPDSQFECPDFSTCCVMVDGSWGCCPMPQASCCEDRVHCCPHGAFCDLVHTRCITPTGTHPLAKKLPAQRTNRAVALSSSVMCPDARSRCPDGSTCCELPSGKYGCCPMPNATCCSDHLHCCPQDTVCDLIQSKCLSKENATTDLLTKLPAHTVGDVKCDMEVSCPDGYTCCRLQSGAWGCCPFTQAVCCEDHIHCCPAGFTCDTQKGTCEQGPHQVPWMEKAPAHLSLPDPQALKRDVPCDNVSSCPSSDTCCQLTSGEWGCCPIPEAVCCSDHQHCCPQGYTCVAEGQCQRGSEIVAGLEKMPARRASLSHPRDIGCDQHTSCPVGQTCCPSLGGSWACCQLPHAVCCEDRQHCCPAGYTCNVKARSCEKEVVSAQPATFLARSPHVGVKDVECGEGHFCHDNQTCCRDNRQGWACCPYRQGVCCADRRHCCPAGFRCAARGTKCLRREAPRWDAPLRDPALRQLL
B1 displayed a Kd in experiment [3] of 3.5 ± 1.6 nM.
